According to publication PMC11711097 (Nature, 2024):
Positions count from the first letter of the chain named. Names and notes keep the numbering of the source.

Tests used:
cross-linking = biological target: the molecule itself; assay: cross-linking
cryo-EM structure = biological target: the molecule itself; assay: cryo-EM structure
[1] = biological target: Full-length mouse NINJ1(K45Q) (mouse, UniProt O70131, K45Q); assay: SPR

B1: Endogenous NINJ1 of mouse bone marrow-derived macrophages (natural protein)
chain: MESGTEEYELNGDLRPGSPGSPDALPPRWGLRNRPINVNHYANKKSAAESMLDIALLMANASQLKAVVEQGNDFAFFVPLVVLISISLVLQIGVGVLLIFLVKYDLNNPAKHAKLDFLNNLATGLVFIIVVVNIFITAFGVQKPVMDVAPRQ
Q: Which “stoichiometry N” value (cross-linking) does the source give for B1 here?
A: Its value is 2 subunits.

B2: Full-length mouse NINJ1(K45Q) (natural protein)
chain: B1 chain with K45Q
Q: B2 was tested. Which “stoichiometry N” value (cryo-EM structure) did it give?
A: The value was 4 subunits.

B3: Nb538 (His-tagged, purified) (VHH)
VHH: EVQLVESGGGLVQPGGSLRLSCAASGFNVYSSSYYYVGWVRRAPGKGEELVARISPSYGYTYYADSVKGRFTISADTSKNTAYLQMNSLRAEDTAVYYCEVYIFGQYFESGQGTLVTVSS
Q: Which Kd [1] does the source give for B3 here?
A: The Kd was 24 nM.
